Kd data for 1 molecule are collected here from paper PMC10716038, “Talin and kindlin use integrin tail allostery and direct binding to activate integrins” (Nature Structural & Molecular Biology, 2023).

What all share (conditions): both partners purified
In experiment [1] the target is T1, kindlin-2 (KIND2) (UniProt Q8CIB5 1-680).
T1 construct: kindlin-2 (KIND2), recombinant; with the F1 loop and the PH domain (unlike ΔKIND2); source: E. coli Rosetta, purified (IMAC, SEC); not shown: His10-SUMO, N-terminal, cleaved
T1 sequence (looked up): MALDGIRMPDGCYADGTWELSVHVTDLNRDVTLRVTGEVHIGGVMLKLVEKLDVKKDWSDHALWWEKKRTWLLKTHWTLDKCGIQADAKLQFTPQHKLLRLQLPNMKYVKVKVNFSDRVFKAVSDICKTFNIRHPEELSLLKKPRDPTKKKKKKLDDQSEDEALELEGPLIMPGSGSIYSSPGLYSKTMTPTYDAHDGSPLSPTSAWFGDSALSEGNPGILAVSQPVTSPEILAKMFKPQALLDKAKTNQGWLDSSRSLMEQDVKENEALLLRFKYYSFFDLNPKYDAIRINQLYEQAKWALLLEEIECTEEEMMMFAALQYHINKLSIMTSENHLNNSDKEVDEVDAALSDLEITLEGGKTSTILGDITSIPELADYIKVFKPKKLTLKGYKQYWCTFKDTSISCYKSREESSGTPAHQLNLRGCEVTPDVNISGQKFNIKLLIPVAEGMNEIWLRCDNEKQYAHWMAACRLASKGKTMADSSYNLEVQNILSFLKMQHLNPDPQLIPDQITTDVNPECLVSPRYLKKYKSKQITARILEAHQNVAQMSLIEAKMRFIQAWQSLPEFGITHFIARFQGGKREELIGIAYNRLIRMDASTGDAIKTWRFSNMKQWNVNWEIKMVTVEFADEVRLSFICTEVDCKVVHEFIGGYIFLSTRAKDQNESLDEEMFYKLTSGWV
Kind of experiment: MST; apparent; KIND2 titrated to 488–β3-CT in the presence of 100–400 µM THD2; MST buffer.

Experiment [2] addresses T1, kindlin-2 (KIND2). Kind of experiment: MST; apparent; KIND2 titrated to 488–β3-CT in the presence of 120 µM THD1-K402E; MST buffer.
The target in experiment [3] is T2, talin-2 head domain (THD2) (UniProt Q71LX4 1-408).
T2 construct: talin-2 (TLN2) head domain (THD), residues 1-408; source: E. coli (DE3) Rosetta 2, purified (IMAC, SEC); not shown: His10-SUMO, N-terminal, cleaved
Kind of experiment: MST; apparent; THD1 titrated to 488–β1-CT or THD2 to 488–β3-CT in the presence of 30 µM KIND2; MST buffer.

Experiment [4] concerns the target T3, talin-1 head domain (THD1) (UniProt P26039 1-405).
T3 construct: talin-1 (TLN1) head domain (THD), residues 1-405; murine TLN1 cDNA is named only for the cell lines; also called WT; source: E. coli (DE3) Rosetta 2, purified (IMAC, SEC); not shown: His10-SUMO, N-terminal, cleaved
Briefly: MST; apparent; THD1 titrated to 488–β1-CT or 488–β3-CT in the presence of 500–1,100 µM KIND2-F0; MST buffer.

For experiment [5], the target named is T4, KIND2 Y13A (UniProt Q8CIB5 1-680, Y13A).
T4 construct: kindlin-2 (KIND2), recombinant, Y13A; source: E. coli Rosetta, purified (IMAC, SEC); not shown: His10-SUMO, N-terminal, cleaved
T4 sequence (looked up): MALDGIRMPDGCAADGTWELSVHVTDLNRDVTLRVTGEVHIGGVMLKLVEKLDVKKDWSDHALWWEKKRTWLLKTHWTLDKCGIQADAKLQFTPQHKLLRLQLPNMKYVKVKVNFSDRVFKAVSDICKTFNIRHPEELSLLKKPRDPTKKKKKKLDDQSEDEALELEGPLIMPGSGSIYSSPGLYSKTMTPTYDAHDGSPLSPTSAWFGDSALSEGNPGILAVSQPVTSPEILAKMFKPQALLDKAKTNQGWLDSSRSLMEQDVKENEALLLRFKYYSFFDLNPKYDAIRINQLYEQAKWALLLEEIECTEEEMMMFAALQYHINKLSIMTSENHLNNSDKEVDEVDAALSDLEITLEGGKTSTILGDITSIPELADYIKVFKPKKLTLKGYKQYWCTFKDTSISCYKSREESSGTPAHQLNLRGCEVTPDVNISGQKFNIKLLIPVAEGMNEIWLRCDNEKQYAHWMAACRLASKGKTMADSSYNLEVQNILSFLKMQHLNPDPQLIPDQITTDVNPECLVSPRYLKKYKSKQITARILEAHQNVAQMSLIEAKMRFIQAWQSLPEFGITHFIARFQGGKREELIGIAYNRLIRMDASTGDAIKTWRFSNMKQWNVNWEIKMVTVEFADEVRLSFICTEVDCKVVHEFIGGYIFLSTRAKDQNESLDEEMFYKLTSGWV
Briefly: MST; apparent; KIND2-Y13A titrated to 488–β3-CT or KIND2 to 488–β1-spacer-CT in the presence of 300-400 µM THD1; MST buffer.

Experiment [6] addresses T3, talin-1 head domain (THD1). Briefly: MST; unlabelled protein titrated to 50-200 nM ATTO 488-labelled β-CT peptide, no third protein; 20 mM Tris pH 7.5, 200 mM NaCl, 1 mM TCEP, 0.05% Tween-20; Kd of individual titrations (in S0002 mean and sd, n = 2).
The target of experiment [7] is T5, THD1 K402A (UniProt P26039 1-405, K402A).
T5 construct: talin-1 (TLN1) head domain, residues 1-405, K402A; source: E. coli (DE3) Rosetta 2, purified (IMAC, SEC); not shown: His10-SUMO, N-terminal, cleaved
The description is as above.

Experiment [8] has as its target T3, talin-1 head domain (THD1). The experiment is described as above. The source holds these as a separate data set.

Where “and” joins values, the source holds several entries; their conditions need not be identical. Equal entries are not always repeated. No end group written: not given here.

T3 sequence (P26039 1-405): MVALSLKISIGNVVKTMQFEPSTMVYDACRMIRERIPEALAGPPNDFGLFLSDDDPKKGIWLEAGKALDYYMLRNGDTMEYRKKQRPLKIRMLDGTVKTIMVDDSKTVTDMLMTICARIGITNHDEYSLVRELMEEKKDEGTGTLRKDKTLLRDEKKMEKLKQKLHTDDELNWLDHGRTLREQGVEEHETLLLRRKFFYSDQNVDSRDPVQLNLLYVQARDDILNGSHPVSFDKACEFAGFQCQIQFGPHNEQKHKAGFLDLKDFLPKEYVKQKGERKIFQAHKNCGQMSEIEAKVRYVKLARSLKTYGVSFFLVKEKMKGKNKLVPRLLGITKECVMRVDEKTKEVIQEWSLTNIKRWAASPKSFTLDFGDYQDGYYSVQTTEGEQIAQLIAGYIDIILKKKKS
T2 sequence (Q71LX4 1-408): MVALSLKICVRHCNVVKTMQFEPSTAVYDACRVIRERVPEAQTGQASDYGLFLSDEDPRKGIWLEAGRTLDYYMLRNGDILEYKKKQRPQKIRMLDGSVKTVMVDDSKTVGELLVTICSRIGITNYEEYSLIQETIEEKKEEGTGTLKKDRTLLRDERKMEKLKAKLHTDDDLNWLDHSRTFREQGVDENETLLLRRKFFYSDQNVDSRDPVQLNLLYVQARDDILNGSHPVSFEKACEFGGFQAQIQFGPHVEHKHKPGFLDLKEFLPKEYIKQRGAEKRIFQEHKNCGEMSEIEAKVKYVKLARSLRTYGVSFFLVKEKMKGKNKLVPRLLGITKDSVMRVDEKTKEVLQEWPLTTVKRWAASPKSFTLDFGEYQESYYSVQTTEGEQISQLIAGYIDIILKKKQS
T5 sequence (P26039 1-405 K402A): as the sequence (P26039 1-405) above, with K402A counted along it

B1: ATTO 488-labeled integrin β3 cytoplasmic tail (488–β3-CT) (peptide, UniProt O54890 741-787, looked up)
peptide: {ATTO 488}-KLLITIHDRKEFAKFEEERARAKWDTANNPLYKEATSTFTNITYRGT
notes: integrin β3 cytoplasmic tail (β3-CT); source: synthetic peptide (MPIB Core Facility)
Turning to B1, the Kd was 20.9 µM and 29.1 µM and 29.5 µM in experiment [1]; 16.4 µM and 15.8 µM and 16.7 µM in experiment [2]; 39.1 µM and 36.2 µM and 54 µM in experiment [3]; 105 µM and 87.6 µM in experiment [4]; 24 µM and 20.7 µM and 18.8 µM in experiment [5]; 105 µM in experiment [6]. Also, the Kd in experiment [7] was 45 µM; in experiment [8], 127 µM and 115 µM and 93.9 µM and 85.5 µM.
